Source: US20070154472A1 (published 2007)
[ ]: non-standard residue; d: D form. The star is where a group is joined. Biotin = O=C1N[C@H]2[C@H](CS[C@H]2CCCCC(=O)*)N1; pY = N[C@@H](Cc1ccc(OP(=O)(O)O)cc1)C(=O)O; βAla = NCCC(=O)O

T1: BTK peptide (non-phosphorylated)
T1 construct: also called Tufts peptide
T1 peptide: {Biotin-βAla}-AKKVVALYDYMPMN-OH

T2: Phospho-BTK peptide (SMILES …)
T2 peptide: Biotin-[βAla]KKVVAL[pY]D[pY]MPMN-OH

T3: fully sulfated and glycosylated human PSGL-1 19.ek.Fc fusion protein (human, sulfated tyrosines (y in QATEyEyLDyDFL, corresponding to Tyr46, Tyr48 and Tyr51 of mature human PSGL-1); O-linked glycan; biotinylated in the assays)
T3 construct: also called PSGL-19.ek.Fc; PSGL-19.ed.Fc; not shown: human IgG1 Fc as described in Somers et al., Cell 103:467-479 (2000)
T3 chain: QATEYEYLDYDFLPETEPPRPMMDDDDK

B1: PSG2 full-length bivalent antibody (human IgG4, lambda) (antibody, V domains shown)
VH: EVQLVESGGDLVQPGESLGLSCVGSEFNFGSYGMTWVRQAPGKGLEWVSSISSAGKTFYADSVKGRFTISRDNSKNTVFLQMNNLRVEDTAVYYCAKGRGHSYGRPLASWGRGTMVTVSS
VL: QAVLTQPSSLSASPGASASLTCTLRSGIDVGPHRIYWFQQKPGSTPQYLLRYKSDSDTQQGSGVPSRFSGSKDASANAGILLISGLQSEDEADYYCMIWHSSAWVFGGGTKLTVLG
notes: also called P5G2; human monoclonal antibody PSG2
B2: PSG1 full-length bivalent antibody (human IgG4, lambda) (antibody, V domains shown)
VH: QVQLQESGAEVKKPGASVKVSCKSSGYTFTAYYMHWLRQAPGQGLEWMGWINPNSGGTNYAQKFQGRVTLTRDTSISTAYMELNSLTSDDTAMYYCARGGPRVSSRPGIGYSDSWGKGTLVTVSS
VL: QTVVLQEPSLTVSPGGTVTLTCASRIGAVTSGHYANWFQQKPGQAPRALIYRTNNKQSWTPARFSGSLLGDRAALTLSGAQPEDEADYYCLLYYGGSWVFGGGTKLTVLG
notes: also called human monoclonal antibody PSG1

How the values were obtained:
[1] = molecular target: T1, BTK peptide (non-phosphorylated); experiment: dot blot on P81 phosphocellulose filters
Source text: (§1) PSG2 is Specific for Sulfotyrosine as Compared to Phosphotyrosine. To compare binding to various peptides, a GPG-290 polypeptide (GPG) or a BTK peptide (BTK) (Tufts peptide) (biotin-βAla-[…]-[OH]) (SEQ ID NO:339), one microliter of 1:3 dilutions of compound was spotted onto P81 phosphocellulose filters (Upstate Cell Signaling #20-134). GPG-290 is a dimeric molecule consisting of the N-terminal 290 amino acids of GPIbα fused to a mutated Fc domain of human IgG1. It contains 3 sulfated tyrosine residues at positions 276, 278, and 279. The BTK peptide is biotin-βAla-[…]-[OH] (SEQ ID NO:339). Phospho-BTK contains 2 phosphorylated tyrosine residues. The starting dilution for GPG-290 was 250 ng/μl and for the BTK peptide the starting dilution was 3 μg/μl. Western Blot analysis was performed as follows: filters were blocked for 1 hour in blocking buffer (TBS+0.1% Tween-20 (TBS/T) and 5% nonfat dry milk). Filters were washed in TBS/T and incubated overnight in primary antibody diluted in TBS/T+0.5% BSA. Washed filters were incubated for 1 hour with secondary antibody diluted in blocking buffer (HRP-mouse anti-human IgG4 to detect PSG-2 and HRP-goat anti-mouse IgG+A+M to detect anti-phospho-tyrosine antibody). HRP signal was detected with the SuperSignal Chemiluminescent Substrate (Pierce) and the filters were exposed to X-ray film.

Phospho-BTK peptide = molecular target: T2, Phospho-BTK peptide; experiment: dot blot on P81 phosphocellulose filters
Source text: as §1

[2] = molecular target: T4, unglycosylated and unsulfated synthetic peptide 19.ek (human, biotinylated; no sulfate, no glycan); experiment: SPR (BIAcore), biotinylated peptide on streptavidin chip
T4 construct: also called synthetic peptide lacking sulfated tyrosine
Experimental: Surface plasmon resonance binding analysis. A BIAcore 2000 instrument (BIAcore AB, Uppsala, Sweden) was used to analyze the interactions between the identified antibodies and biotinylated PSGL-1 19.ek.Fc or derived peptides. Binding experiments were performed at 25° C. using streptavidin-coated sensor chips (BIAcore) and HBS-P buffer (20 mM HEPES [pH 7.4], 150 mM NaCl and 0.005% polysorbate 20 v/v) adjusted to 1 mM for both CaCl₂ and MgCl₂. The streptavidin on the sensor surfaces were conditioned with three one-minute injections of a solution containing 1 M NaCl and 25 mM NaOH. The chips were regenerated with 5 μL of 0.1% TFA and equilibrated with running buffer. […] Binding kinetics were analyzed using BIAevaluation software (V2.1; Pharmacia Biosensor, Uppsala, Sweden). The response representing the mass of bound monoclonal antibodies was measured in resonance units (RU). […] Binding kinetics of human anti-PSGL-1 monoclonal antibodies to the immobilized PSGL-1 19.ek.Fc was determined under partial mass transport limitations by triplicate injections at a concentration range (0-100 nM) onto the immobilized biotinlylated PSGL-1 19.ek.Fc peptide at a flow rate of 30 μL/min, following injection for two minutes. Dissociation was monitored for ten minutes at the same flow rate. […]

[3] = molecular target: T3, fully sulfated and glycosylated human …; experiment: SPR (BIAcore 2000), biotinylated PSGL-1 19.ek.Fc on streptavidin chip, antibody 0-100 nM
Experimental: Surface plasmon resonance binding analysis. A BIAcore 2000 instrument (BIAcore AB, Uppsala, Sweden) was used to analyze the interactions between the identified antibodies and biotinylated PSGL-1 19.ek.Fc or derived peptides. Binding experiments were performed at 25° C. using streptavidin-coated sensor chips (BIAcore) and HBS-P buffer (20 mM HEPES [pH 7.4], 150 mM NaCl and 0.005% polysorbate 20 v/v) adjusted to 1 mM for both CaCl₂ and MgCl₂. The streptavidin on the sensor surfaces were conditioned with three one-minute injections of a solution containing 1 M NaCl and 25 mM NaOH. The chips were regenerated with 5 μL of 0.1% TFA and equilibrated with running buffer. […] Binding kinetics were analyzed using BIAevaluation software (V2.1; Pharmacia Biosensor, Uppsala, Sweden). The response representing the mass of bound monoclonal antibodies was measured in resonance units (RU). […] Binding kinetics of human anti-PSGL-1 monoclonal antibodies to the immobilized PSGL-1 19.ek.Fc was determined under partial mass transport limitations by triplicate injections at a concentration range (0-100 nM) onto the immobilized biotinlylated PSGL-1 19.ek.Fc peptide at a flow rate of 30 μL/min, following injection for two minutes. Dissociation was monitored for ten minutes at the same flow rate.

Binder	binding result [1]	binding result (Phospho-BTK peptide)	binding result [2]	Ka [3] [M⁻¹]
B1	no binding	no binding	no binding (tested: 100 nM)	~3.2e+10
B2			no binding (tested: 100 nM)	~7.5e+09
